Assay results published in patent publication US20100272719A1.

Target: VEGF (isoform not given)
Assay: cell-based or functional assay

| HUVEC tube formation on Matrigel, percent inhibition at 50 µg/ml [%] | HUVEC chemotactic migration (Transwell), percent blocked at 10 µg FP3′ [%] | HUVEC chemotactic migration (Transwell), percent blocked at 20 µg FP3′ [%] | VEGF-induced cell proliferation, percent blocked at 10.7 nM FP3′ [%] | rat aortic ring microvessel sprouting, percent inhibition at 100 µg/ml [%] | rat aortic ring microvessel sprouting, percent inhibition at 200 µg/ml [%] | rat aortic ring vessel outgrowth, more inhibition than Avastin [%] | Substance |
| --- | --- | --- | --- | --- | --- | --- | --- |
| 41.3 |  |  |  |  |  |  | Avastin (bevacizumab) (antibody) |
| 72.3 | 78.3 | 94.7 | 82.6 | 70.4 | 90 | 15 to 33 | FP3′ (FLTd2-KDRd3-KDRd4-Fc chimeric fusion protein) (Fc fusion) |
